# Positions count from the first letter of the chain named.
# T1: human FcγRIIA (H167) (human, UniProt P12318 36-218, limits assumed, biotinylated (site not stated))
# T1 construct: also called Fey RIIA (H167)
# T1 sequence (looked up): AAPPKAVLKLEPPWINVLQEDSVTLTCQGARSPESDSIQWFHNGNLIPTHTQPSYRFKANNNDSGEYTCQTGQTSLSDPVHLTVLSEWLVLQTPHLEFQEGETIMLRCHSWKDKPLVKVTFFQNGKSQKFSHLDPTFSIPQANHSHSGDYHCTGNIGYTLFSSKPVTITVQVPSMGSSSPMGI
# T2: human FcγRIIA (R167) (human, UniProt P12318 36-218, limits assumed, biotinylated (site not stated))
# T2 construct: also called Fe γ RIIA(R167); Fcγ RIJA (R167)
# T2 sequence (looked up): T1 sequence (looked up) with H132R
# T3: human BDCA2 (human, UniProt Q8WTT0 1-213)
# T3 construct: whole, on cells; also called hBDCA2; Blood dendritic cell antigen 2
# T3 sequence (looked up): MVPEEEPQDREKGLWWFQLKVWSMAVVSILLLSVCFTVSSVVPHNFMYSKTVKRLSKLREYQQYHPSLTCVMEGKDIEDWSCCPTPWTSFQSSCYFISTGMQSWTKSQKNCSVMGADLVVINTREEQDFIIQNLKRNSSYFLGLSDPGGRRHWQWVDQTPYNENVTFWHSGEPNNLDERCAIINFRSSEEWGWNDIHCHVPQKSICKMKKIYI
# T4: cynomolgus BDCA2 (cynomolgus monkey, UniProt A0A2K5UWP4 1-212)
# T4 construct: whole, on cells; also called Cyno BDCA2; cynoBDCA2
# T4 sequence: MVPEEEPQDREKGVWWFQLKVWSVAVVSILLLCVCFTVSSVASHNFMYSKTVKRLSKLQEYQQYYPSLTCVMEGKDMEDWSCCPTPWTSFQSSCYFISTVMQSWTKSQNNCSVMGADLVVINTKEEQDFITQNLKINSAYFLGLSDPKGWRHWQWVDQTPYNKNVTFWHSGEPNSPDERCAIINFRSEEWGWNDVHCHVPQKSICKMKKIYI
# T5: Recombinant Human BDCA2 (human, UniProt Q8WTT0 45-213, limits assumed)
# T5 construct: also called hBDCA2 (SPR analyte); human BDCA2 antigen
# T5 sequence (looked up): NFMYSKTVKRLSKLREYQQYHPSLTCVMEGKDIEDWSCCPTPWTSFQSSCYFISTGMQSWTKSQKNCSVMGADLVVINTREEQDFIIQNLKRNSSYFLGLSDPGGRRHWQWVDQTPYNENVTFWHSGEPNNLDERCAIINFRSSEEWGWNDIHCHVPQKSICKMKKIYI
# B1: Hu033-20 (antibody, human IgG1, kappa)
# heavy: not shown
# light: DIVMTQSPDSLAVSLGERATINCRASESVSFRTSHLMHWYQQKPGQPPKLLIYGASNLESGVPDRFSGSGSGTDFTLTISSLQAEDVAVYYCQQSIEDPPTFGGGTKVEIKRTVAAPSVFIFPPSDEQLKSGTASVVCLLNNFYPREAKVQWKVDNALQSGNSQESVTEQDSKDSTYSLSSTLTLSKADYEKHKVYACEVTHQGLSSPVTKSFNRGEC
# notes: Humanized IgG1, wild-type Fc; also called Hu033-20(BM3)
# B2: Hu033-03 (antibody, human IgG1, kappa)
# heavy: not shown
# light: DIVLTQSPASLAVSPGQRATITCRASESVSFRTSHLMHWYQQKPGQPPKLLIYGASNLESGVPARFSGSGSETDFTLTINPVEAEDTANYFCQQSIEDPPTFGGGTKVEIKRTVAAPSVFIFPPSDEQLKSGTASVVCLLNNFYPREAKVQWKVDNALQSGNSQESVTEQDSKDSTYSLSSTLTLSKADYEKHKVYACEVTHQGLSSPVTKSFNRGEC
# notes: Humanized IgG1, wild-type Fc; also called Hu033-03(BM3)
# B3: Hu033-02 (antibody, IgG1, V domains shown)
# VH: EVQLVESGGGLVKPGGSLRLSCAASGFTFSSYGMSWVRQAPGKGLEWVSTISSGDSYTYYPDSVKGRFTISRDNAKNSLYLQMNSLRAEDTAVYYCARQIYYDYAYYFDFWGQGTTVTVSS
# VL: DIVLTQSPASLAVSPGQRATITCRASESVSFRTSHLMHWYQQKPGQPPKLLIYGASNLESGVPARFSGSGSETDFTLTINPVEAEDTANYYCQQSIEDPPTFGGGTKVEIK
# notes: Humanized IgG1; also called Hu033-02(BM2)
# B4: Hu033-16 (antibody, IgG1, V domains shown)
# VH: B3 VH with S30R, G44R
# VL: EIVLTQSPATLSLSPGERATLSCRASESVSFRTSHLMHWYQQKPGQAPRLLIYGASNLESGIPARFSGSGSETDFTLTISRLEPEDFAVYFCQQSIEDPPTFGGGTKVEIK
# notes: Humanized IgG1; also called Hu033-16(BM4)
# B5: Hu033-10 (antibody, IgG1, V domains shown)
# VH: B3 VH with S30R, G44R
# VL: B3 VL
# notes: Humanized IgG1; also called Hu033-10(BM4)
# B6: Hu033-04 (antibody, IgG1, V domains shown)
# VH: B3 VH
# VL: DIVMTQSPDSLAVSLGERATINCRASESVSFRTSHLMHWYQQKPGQPPKLLIYGASNLESGVPDRFSGSGSGTDFTLTISSLQAEDVAVYYCQQSIEDPPTFGGGTKVEIK
# notes: Humanized IgG1; also called Hu033-04(BM0)
# B7: Hu033-06 (antibody, IgG1, V domains shown)
# VH: B3 VH
# VL: B6 VL with M4L, G72E, S81P, Y91F
# notes: Humanized IgG1; also called Hu033-06(BM3)
# B8: Hu033-15 (antibody, IgG1, V domains shown)
# VH: B3 VH with S30R, G44R
# VL: B4 VL with E72G, F91Y
# notes: Humanized IgG1; also called Hu033-15(BM2)
# B9: Hu033-13 (antibody, IgG1, V domains shown)
# VH: B3 VH with S30R, G44R
# VL: B6 VL with M4L, Y91F
# notes: Humanized IgG1; also called Hu033-13(BM4)
# B10: Hu033-23 (antibody, IgG1, V domains shown)
# VH: B3 VH with S30R, G44R, R87K
# VL: B4 VL with E72G, F91Y
# notes: Humanized IgG1; also called Hu033-23(BM3)
# B11: Hu033-12 (antibody, IgG1, V domains shown)
# VH: B3 VH with S30R, G44R
# VL: B6 VL
# notes: Humanized IgG1; also called Hu033-12(BM2)
# B12: Hu033-08 (antibody, IgG1, V domains shown)
# VH: B3 VH
# VL: B4 VL
# notes: Humanized IgG1; also called Hu033-08(BM2)
# Molecular target: T1, human FcγRIIA (H167)
# Experiment: SPR (BIAcore 8K), biotinylated FcγRIIA (H167) on SA chip, antibody as analyte, 1:1 binding
# Description: (§1) Antibody kinetics or affinity parameters were measured using BIAcore 8K and freshly fixed biotinylated human Fe γ RIIA(R167)/Fc γ RIIA (H167) SA chips. The experiment was run at 25° C. with a running buffer of 1×HBS-EP+(10 mM HEPES pH 7.4, 150 mM NaCl, 3 mM EDTA, 0.05% Surfactant P20). […] The binding and dissociation times of the antibody were 60 and 90 seconds, respectively. Two zero concentration samples are used to remove background signals. The sample was injected in a multi cycle manner, the analyte can be fully dissociated from the chip surface at the end of each cycle, and no regeneration step was applied. Data analysis was perform using Biacore Insight Evaluation Software (Version 2.0.15.12933). After deducting the reference channel (flow cell 1) and two zero concentration signals, affinity analysis was performed using a 1:1 binding model or steady-state model for curve fitting and calculation of kinetic parameters.
Kd [nM],koff [s⁻¹],kon [M⁻¹ s⁻¹],Binder
981,0.431,439000,B1
941,0.339,361000,B2

# Molecular target: T2, human FcγRIIA (R167)
# Experiment: SPR (BIAcore 8K), biotinylated FcγRIIA (R167) on SA chip, antibody as analyte, 1:1 binding
# Description: as §1
Kd [nM],koff [s⁻¹],kon [M⁻¹ s⁻¹],Binder
578,0.838,1.45e+06,B1
510,0.782,1.53e+06,B2

# Molecular target: T3, human BDCA2
# Experiment: FACS, CHOK1-humanBDCA2 cells
# Description: (§2) The cells were recovered and resuspended to 2×10⁶/mL with FACS buffer (PBS+2% FBS). The resuspended cells were added to 3799 cell plates at 100 μL/well, and the supernatant was discarded after centrifugation at 300 g. […] The cells were incubated at 4° C. for 1 h. The incubated cells were centrifuged at […] for 5 min and washed twice with FACS buffer. 100 μL Goat anti-Human IgG (H+L) Cross-Adsorbed Secondary Antibody, Alexa Fluor 488 (Sigma, A11013; 1:1000) secondary antibody was added, washed twice with FACS buffer after incubation at 4° C. for 1 h. The cells were resuspended with PBS, then the fluorescence signal of antibodies bound to cell surface was analyzed with FACS (BD FACS CantoTM II) instrument and curves were fitted with GraphPad Prism6 to calculate EC₅₀ values for antibodies binding to BDCA2 antigen.
row,EC50 [nM],Binder
1,0.44,B3
2,0.63,B4
3,0.51,B5
4,0.61,B6
5,0.62,B7
6,0.76,B8
7,0.68,B9
8,0.79,B10
9,0.45,B11
10,0.62,B12
11,0.64,B1
12,0.5,B2

# Molecular target: T4, cynomolgus BDCA2
# Experiment: FACS, 293F-cynoBDCA2 cells
# Description: as §2
row,EC50 [nM],Binder
1,1.2,B3
2,1.37,B4
3,1.27,B5
4,1.33,B6
5,1.41,B7
6,1.27,B8
7,1.13,B9
8,1.24,B10
9,1.07,B11
10,1.53,B12
11,1.22,B1
12,1.4,B2

# Molecular target: T3, human BDCA2
# Experiment: cell-based or functional assay
row,"EC50 (nM), inhibition of CpG-A stimulated IFNα release from human PBMC [nM]",Binder
1,0.02,B3
2,0.01,B4
3,0.01,B5
4,0.03,B6
5,0.02,B7
6,0.02,B8
7,0.01,B9
8,0.03,B10
9,0.02,B11
10,0.02,B12
11,0.01,B1
12,0.01,B2

# Molecular target: T5, Recombinant Human BDCA2
# Experiment: SPR (BIAcore), antibody captured by anti-human IgG (Fc), hBDCA2 as analyte, 1:1 model
# Description: Then 1 M ethanolamine was injected at 10 μL/min flow rate for 420 seconds, and the excess active carboxyl groups on chip were blocked. The humanized antibodies were injected into a detection channel flow cell at flow rate of 10 μL/min for 60 s for capture after diluting to 1 μg/mL using running buffer. […] The sample hBDCA2 to be tested of each concentration gradient was injected into the detection channel at 30 μL/min flow rate, two samples at 0 concentration were used to remove background signal. The binding and dissociation times between antigen and antibody were 180 and 400 sec, respectively. An analysis of data was performed using Biacore Insight Evaluation Software (Version 2.0. 15.12933). A 1:1 binding model was selected for curve fitting and kinetic parameters were calculated after subtraction of signal of the reference channel (flow cell 1) and at 0 concentration.
Kd [nM],koff [s⁻¹],kon [M⁻¹ s⁻¹],Binder
0.239,0.000169,707000,B3
0.191,0.000108,569000,B4
0.2,0.000118,589000,B5
0.323,0.000193,598000,B6
0.17,0.000125,733000,B7
0.467,0.000227,487000,B8
0.338,0.000153,454000,B9
0.444,0.000207,466000,B10
0.283,0.000149,527000,B11
0.229,0.000169,740000,B12
0.268,0.000149,556000,B1
0.236,0.000136,576000,B2
